Measurements published in patent publication US20230391872A1 (ANAPTYSBIO, published 2023).

Assays:
[1] = target: T1, human BTLA on cells (stably transfected 293c18 cells; human peripheral blood T and B cells) (human, UniProt Q7Z6A9 31-289); assay: flow cytometry, DyLight 650-labeled 6G3 IgG4 on human peripheral blood CD8+ T cells
T1 construct: whole, on cells; the cells are named under assay; also called cell surface BTLA; full-length human BTLA
Method: (§1) PBMCs were washed and incubated at 2×10⁷ cells/ml in FACS buffer (PBS, 1% BSA, 0.02% sodium azide) with Human BD Fc Block (2.5 μg/1×10⁶ cells, BD Biosciences) and LIVE/DEAD® Fixable Yellow Dead Cell Stain (30 μl, ThermoFisher Scientific) for 10 minutes on ice. Cells were washed once in FACS buffer, resuspended in FACS buffer at 1×10⁷ cells/ml and the following phenotyping antibodies added: Alexa Fluor 488-anti-human CD3E clone SK7, Brilliant Violet 421-anti-human CD4 clone OKT4, Brilliant Violet 785-anti-human CD8 clone SK1, and Brilliant Violet 570-anti-human CD20 clone 2H7 (50 μl each; all from BioLegend, Inc.). […] Samples were washed twice in FACS buffer, resuspended in 150 μl/well FACS buffer, and analyzed for fluorescence on a NovoCyte Flow Cytometer (ACEA Biosciences, Inc.). Data were analyzed using NovoExpress Software (ACEA Biosciences, Inc.). Median fluorescence intensities of anti-BTLA or isotype staining on gated CD4⁺ T cells (FIG. 4), CD8⁺ T cells (FIG. 4), or CD20⁺ B cells (FIG. 4) were graphed and curves fit with log(agonist) vs. response (three parameters) least squares fit for EC₅₀ calculation in GraphPad Prism (GraphPad Software, Inc.).

[2] = target: T1, human BTLA on cells (stably transfected …); assay: flow cytometry, DyLight 650-labeled 6G3 IgG4 on human peripheral blood CD20+ B cells
Method: as §1

[3] = target: T2, cynomolgus monkey BTLA on cells (stably transfected 293c18 clone 1G5); cynomolgus peripheral blood T and B … (cynomolgus monkey, UniProt A0A2K5W7M7 31-289); assay: flow cytometry, AF647-labeled 6G3 IgG4 on cynomolgus monkey peripheral blood CD3+ T cells; not saturated at 100 nM
T2 construct: whole, on cells; also called cynomolgus monkey BTLA 293c18 cells
T2 sequence: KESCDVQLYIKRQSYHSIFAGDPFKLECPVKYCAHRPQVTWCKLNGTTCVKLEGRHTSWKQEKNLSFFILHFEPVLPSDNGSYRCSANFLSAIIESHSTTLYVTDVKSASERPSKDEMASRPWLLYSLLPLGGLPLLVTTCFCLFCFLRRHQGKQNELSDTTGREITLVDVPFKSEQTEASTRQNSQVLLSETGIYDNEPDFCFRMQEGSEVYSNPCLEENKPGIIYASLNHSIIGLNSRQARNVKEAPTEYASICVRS
Method: Blood was then aliquoted into wells and incubated with the indicated concentrations of 6G3-AF647 (APE13766.02), or APC-Mouse Anti-Human CD272 (BTLA) reference antibody (clone J168-540; BD Biosciences) for minutes at room temperature, in the dark. Following incubation, red blood cells were lysed for minutes by addition of 2.0 ml diluted BD Pharm Lyse lysing solution (BD Biosciences), samples centrifuged at 200×g for 5 minutes, washed in FACS Buffer [Dulbecco's PBS, no calcium, no magnesium (Gibco/ThermoFisher Scientific), 25 mM HEPES, pH 7.2, 0.1% BSA, sodium azide] and fixed in 4% paraformaldehyde (200 μl/sample) for 10 minutes at room temperature. Samples were washed twice in FACS Buffer and analyzed for fluorescence on a NovoCyte Quanteon flow cytometer (ACEA Biosciences, Inc.). Data were analyzed using NovoExpress Software (ACEA Biosciences, Inc.). Mean fluorescence intensity (MFI) values were graphed and fit with nonlinear regression analyses in GraphPad Prism (GraphPad Software, Inc.). MFI values for each anti-BTLA antibody on total CD3+cells are shown in FIG. 5A; MFI values for each anti-BTLA antibody on total CD20+cells are shown in FIG. 5B. […] Binding of each anti-BTLA antibody to CD3⁻ cells in FIG. 5C and FIG. 5D (green cells in the bottom quadrants of each panel) reflects the binding to CD20⁺ B cells. […]

EC50 [1]: ~3.2 nM | EC50 [2]: ~0.5 nM | EC50 [3]: ~3.4 nM
B1: 6G3 IgG4 anti-BTLA antibody (APE10840 / APE12839 / APE13308) (antibody, V domains shown)
VH: QVQLVQSGAEVKKPGSSVKVSCKASGYVFSTSWMNWVRQAPGQGLEWMGRIYPGDADTNYVGKFKGRVTITADKSTTTAYMELSSLRSEDTAVYFCAKSGTFNFGNYRWYFDVWGKGTTVTVSS
VL: AIQLTQSPSSLSASVGDRVTITCRVSENIYSHLAWYQQKPGKAPKLLIYAATNLALGVPSRFSGSGSGTDYTLTISSLQPEDFATYYCQLFWGPPLTFGGGTKVEIKR
notes: Humanized antibody from a mouse hybridoma, tested as human IgG4 (detected with anti-human kappa); Some assays used labelled lots (DyLight 650, AF647, biotin, DyL488); also called 6G3 antibody; APE10840.03
